Results reported in patent publication US20180319883A1 (Stanford University, published 2018).

What was measured:
[1] = molecular target: T1, human SIRPα, endogenous, on THP-1 cells (human, UniProt P78324 31-504); assay: flow cytometry competition on THP-1 cells against 100 nM fluorescent CD47/streptavidin tetramers
T1 construct: whole, on cells; also called SIRP-alpha

[2] = molecular target: T1, human SIRPα, endogenous, on THP-1 cells; assay: flow cytometry competition on THP-1 cells against CD47 tetramers

IC50 [1] [nM] | IC50 [2] [nM] | Binder
~0.27 | – | KWAR23, monoclonal CD47-blocking anti-human SIRPα antibody (purified from hybridoma supernatant) (antibody, V domains shown, Mouse hybridoma antibody purified by protein G chromatography; also called KWAR23 antibody; intact KWAR23) VH: EVQLQQSGAELVKPGASVKLSCTASGFNIKDYYIHWVQQRTEQGLEWIGRIDPEDGETKYAPKFQDKATITADTSSNTAYLHLSSLTSEDTAVYYCARWGAYWGQGTLVTVSS VL: QIVLTQSPAIMSASPGEKVTLTCSASSSVSSSYLYWYQQKPGSSPKLWIYSTSNLASGVPARFSGSGSGTSYSLTISSMEAEDAASYFCHQWSSYPRTFGAGTKLELK
– | ~35 | KWAR23 scFv LH (N-terminal light chain), monomer expressed in E. coli (scFv, also called LH scFv; LH monomer) scFv: QIVLTQSPAIMSASPGEKVTLTCSASSSVSSSYLYWYQQKPGSSPKLWIYSTSNLASGVPARFSGSGSGTSYSLTISSMEAEDAASYFCHQWSSYPRTFGAGTKLELKGTTAASGSSGGSSSGAEVQLQQSGAELVKPGASVKLSCTASGFNIKDYYIHWVQQRTEQGLEWIGRIDPEDGETKYAPKFQDKATITADTSSNTAYLHLSSLTSEDTAVYYCARWGAYWGQGTLVTVS
– | ~35 | KWAR23 scFv HL (N-terminal heavy chain), monomer expressed in E. coli (scFv, also called HL scFv; HL monomer) scFv: EVQLQQSGAELVKPGASVKLSCTASGFNIKDYYIHWVQQRTEQGLEWIGRIDPEDGETKYAPKFQDKATITADTSSNTAYLHLSSLTSEDTAVYYCARWGAYWGQGTLVTVSGGGGSGGGGSGGGGSQIVLTQSPAIMSASPGEKVTLTCSASSSVSSSYLYWYQQKPGSSPKLWIYSTSNLASGVPARFSGSGSGTSYSLTISSMEAEDAASYFCHQWSSYPRTFGAGTKLELK
